Key:
Can1 wild type = target: T1, Can1 wild type (UniProt Q53W14 =ME+3-636+=LE, internal_change); assay: SAXS; EMSA: 100 nM 32P-cA4, 20 mM MES pH 6.5, 100 mM NaCl, 1 mM EDTA, 5 mM MnCl2, 2 uM BSA, 10 min at room temperature; 15% native acrylamide, 1x TBE; conditions: protein: recombinant; tags: N-terminal His tag removed by TEV; C-terminal Leu-Glu added by cloning; cyclic single strand of 4 nt
T1 sequence: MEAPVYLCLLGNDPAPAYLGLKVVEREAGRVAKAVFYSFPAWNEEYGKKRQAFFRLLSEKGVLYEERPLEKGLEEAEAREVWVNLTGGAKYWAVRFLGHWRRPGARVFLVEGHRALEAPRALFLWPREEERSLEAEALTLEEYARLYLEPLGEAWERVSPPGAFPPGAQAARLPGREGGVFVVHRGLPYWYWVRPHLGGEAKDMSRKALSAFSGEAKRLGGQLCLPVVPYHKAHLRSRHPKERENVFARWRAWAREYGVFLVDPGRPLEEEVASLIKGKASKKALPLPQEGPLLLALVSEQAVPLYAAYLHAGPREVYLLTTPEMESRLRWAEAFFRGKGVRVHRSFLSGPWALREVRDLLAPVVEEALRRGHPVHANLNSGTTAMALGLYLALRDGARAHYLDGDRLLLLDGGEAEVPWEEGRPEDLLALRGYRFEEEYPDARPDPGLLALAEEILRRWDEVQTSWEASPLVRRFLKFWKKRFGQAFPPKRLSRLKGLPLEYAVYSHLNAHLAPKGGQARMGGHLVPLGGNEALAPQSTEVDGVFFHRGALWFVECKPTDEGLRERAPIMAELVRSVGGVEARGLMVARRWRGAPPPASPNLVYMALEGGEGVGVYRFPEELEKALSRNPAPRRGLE

Can1 SeMet = target: T2, Can1 SeMet (UniProt Q53W14 =ME+3-636+=LE, internal_change); assay: X-ray crystallography (1.83 A); EMSA: 100 nM 32P-cA4, 20 mM MES pH 6.5, 100 mM NaCl, 1 mM EDTA, 5 mM MnCl2, 2 uM BSA, 10 min at room temperature; 15% native acrylamide, 1x TBE; conditions: protein: recombinant; tags: N-terminal His tag removed by TEV; C-terminal Leu-Glu added by cloning; cyclic single strand of 4 nt
T2 sequence: T1 sequence

AAAA (structured_RNA, cyclic oligoribonucleotide, no free ends) [cA4 (cyclic tetra-adenylate), unlabelled]: binds (Can1 wild type); binds (Can1 SeMet).

Source: paper PMC6981274, “Structure and mechanism of a Type III CRISPR defence DNA nuclease activated by cyclic oligoadenylate” (Nature Communications, 2020)
